Laboratory results as given in PMC10226596, “The ethylene-responsive transcription factor PpERF9 represses PpRAP2.4 and PpMYB114 via histone deacetylation to inhibit anthocyanin biosynthesis in pear”.

B1: ProMYB114-probe (dsDNA)
DNA 1: GCTTGCCGTCTTTGTCGTCTCCGGCGCCGCCATCTACATCTGCTTCCAGGTTCAAC
DNA 2: GTTGAACCTGGAAGCAGATGTAGATGGCGGCGCCGGAGACGACAAAGACGGCAAGC
B2: ProACS1-probe (dsDNA)
DNA 1: GAAAAATAGAGGAGAAAAATGGCCGACAAAATTAGTTGTGGCTACTAGAGTCAAGAAG
DNA 2: CTTCTTGACTCTAGTAGCCACAACTAATTTTGTCGGCCATTTTTCTCCTCTATTTTTC

Assays:
PpRAP2.4 [1] = target: T1, PpRAP2.4 (Pyrus (pear, 'Hongzaosu'?), UniProt A0A5N5HQM7 1-356); assay: EMSA; 3 ug protein; cold competitor 10-, 50-, 200-fold; LightShift Chemiluminescent EMSA Kit (Thermo Scientific); buffer, salt, pH and temperature not stated; details: protein: recombinant; tags: His (pET32a); label: 3' biotin (hot probe); blunt
T1 sequence (A0A5N5HQM7 entry or part of it): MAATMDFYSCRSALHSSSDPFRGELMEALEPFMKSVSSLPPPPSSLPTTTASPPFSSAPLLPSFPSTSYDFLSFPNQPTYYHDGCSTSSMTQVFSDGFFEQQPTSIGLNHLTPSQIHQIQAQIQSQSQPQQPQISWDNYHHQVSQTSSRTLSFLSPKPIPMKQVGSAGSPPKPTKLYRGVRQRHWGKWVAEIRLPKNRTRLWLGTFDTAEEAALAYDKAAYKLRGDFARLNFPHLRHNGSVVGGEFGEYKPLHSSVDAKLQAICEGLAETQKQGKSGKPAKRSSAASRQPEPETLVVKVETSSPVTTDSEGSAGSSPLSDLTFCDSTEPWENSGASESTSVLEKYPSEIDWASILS

PpRAP2.4 [2] = target: T1, PpRAP2.4; assay: EMSA; cold competitor 50-, 100-, 200-fold; LightShift Chemiluminescent EMSA Kit (Thermo Scientific); buffer, salt, pH and temperature not stated; details: protein: recombinant; tags: His (pET32a); label: 3' biotin (hot probe); blunt

| Binder | binding result (PpRAP2.4 [1]) | binding result (PpRAP2.4 [2]) |
| --- | --- | --- |
| B1 | binds |  |
| B2 |  | binds |
